Reference: the RNAGym collection of RNA variant scans (doi:10.1093/molbev/msab373)

B1: Azoarcus group I ribozyme (parent)
chain: GUGCCUUGCGCCGGGAAACCACGCAAGGGAUGGUGUCAAAUUCGGCGAAACCUAAGCGCCCGCCCGGGCGUAUGGCAACGCCGAGCCAAGCUUCGGCGCCUGCGCCGAUGAAGGUGUAGAGACUAGACGGCACCCACCUAAGGCAAACGCUAUGGUGAAGGCAUAGUCCAGGGAGUGGCGAAAGUCACACAAACCGG

Variants of: B1
Assay: reverse-splicing fitness (ratio to wild type); higher = more active; in vitro selection; Mg2+ level not given
Method in brief: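 An in vitro group I ribozyme library with randomized positions was T7-transcribed and gel-purified. In triplicate, 10 pmol RNA in EPPS pH 7.5 was reacted with 50 pmoles of a 30-nt RNA substrate for 1 h at 37 °C across several added MgCl2 levels (1–48 mM), then stopped with EDTA. Products were reverse transcribed from a substrate-complementary primer, PCR-amplified and sequenced (HiSeq 4000). Fitness is a variant's read proportion after selection over that before, normalised to wild type.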

Variant | reverse-splicing fitness
C82A A111C A145C C150U C169A U176G | 0.0095
C82A A111C A145C C150U C169A U176A | 0.0127
C82A A111C A145C C150U C169A U176C | 0.01
C82A A111C A120U A145C C150A C169G U176G | 0.00211
C82A A111C A120U A145C C150A C169G U176C | 0.00345
C82A A111C A120U A145C C150A C169G U176A | 0.0036
C82A A111C A120U C150U C169A U176C | 0.00323
C82A A111C A120U C150U C169A U176G | 0.00324
C82A A111C A120U C150U C169A U176A | 0.00537
C82A A111C A120U C150G U176C | 0.00623
C82A A111C A120U C150G U176A | 0.00392
C82A A111C A120U C150G U176G | 0.00249
C82A A111C A120G C169A U176G | 0.00465
C82A A111C A120G C169A U176C | 0.0177
C82A A111C A120U A145G C169A U176A | 0.00438
C82A A111C A120U A145G C169A U176G | 0.00219
C82A A111C A120U A145G C169A U176C | 0.00466
C82A A111C A120U A145C C169U U176C | 0.00326
C82A A111C A120U A145C C169U U176A | 0.00272
C82A A111C A120U A145C C169U U176G | 0.00232
C82A A111C A120U A145G C150A C169U U176C | 0.00488

Variant | reverse-splicing fitness
C82A A111C A120U A145G C150A C169U U176G | 0.00328
C82A A111C A120U A145G C150A C169U U176A | 0.00642
C82A A111C A120U A145G C150A U176A | 0.00754
C82A A111C A120U A145G C150A U176G | 0.00381
C82A A111C A120U A145G C150A U176C | 0.00799
C82A A111C A120U C150G C169A U176C | 0.00597
C82A A111C A120U C150G C169A U176G | 0.00319
C82A A111C A120U C150G C169A U176A | 0.00579
C82A A111C A120U C150A C169G U176C | 0.00395
C82A A111C A120U C150A C169G U176A | 0.00598
C82A A111C A120U C150A C169G U176G | 0.00295
C82A A111C A120U A145U C150U C169G U176C | 0.00338
C82A A111C A120U A145U C150U C169G U176G | 0.00247
C82A A111C A120U A145U C150U C169G U176A | 0.00315
C82A A111C A120U A145G U176A | 0.00698
C82A A111C A120U A145G U176C | 0.0109
C82A A111C A120U A145G U176G | 0.0035
C82A A111C A120U A145G C150U C169U | 0.00603
C82A A111C A120U A145G C150U C169A | 0.00691
C82A A111C A120U A145G C150U C169G | 0.0065
C82A A111C A120U C150A C169A U176A | 0.00546

Variant | reverse-splicing fitness
C82A A111C A120U C150A C169A U176C | 0.00418
C82A A111C A120U C150A C169A U176G | 0.00277
C82A A111C A145C C169A U176G | 0.00693
C82A A111C A145C C169A U176A | 0.0135
C82A A111C A145C C169A U176C | 0.00942
C82A A111C A145C C150G C169A U176C | 0.00911
C82A A111C A145C C150G C169A U176A | 0.00837
C82A A111C A145C C150G C169A U176G | 0.00742
C82A A111C A120U C150A C169U | 0.00635
C82A A111C A120U C150A C169A | 0.00599
C82A A111C A120U C150A C169G | 0.00503
C82A A111C A120U A145G C150G C169G U176G | 0.00456
C82A A111C A120U A145G C150G C169G U176A | 0.0101
C82A A111C A120U A145G C150G C169G U176C | 0.00768
C82A A111C A120U A145C C169U | 0.00399
C82A A111C A120U A145C C169A | 0.00286
C82A A111C A120U A145C C169G | 0.00295
C82A A111C A120U A145G C150G U176A | 0.00763
C82A A111C A120U A145G C150G U176G | 0.00449
C82A A111C A120U A145G C150G U176C | 0.00851
C82A A111C A145C C150G C169U U176C | 0.0112

Variant | reverse-splicing fitness
C82A A111C A145C C150G C169U U176A | 0.00753
C82A A111C A145C C150G C169U U176G | 0.00706
C82A A111C A120U A145U C150A | 0.00598
C82A A111C A120U A145U C150G | 0.00626
C82A A111C A120U A145U C150U | 0.0169
C82A A111C A120U C150U C169A | 0.0052
C82A A111C A120U C150U C169U | 0.00638
C82A A111C A120U C150U C169G | 0.00537
C82A A111C A120U U176C | 0.0115
C82A A111C A120U U176A | 0.00732
C82A A111C A120U U176G | 0.00382
C82A A111C A120U A145G C150G C169U U176G | 0.00484
C82A A111C A120U A145G C150G C169U U176A | 0.00855
C82A A111C A120U A145G C150G C169U U176C | 0.00842
C82A A111C A120U A145U C150G C169G U176G | 0.00306
C82A A111C A120U A145U C150G C169G U176A | 0.00314
C82A A111C A120U A145U C150G C169G U176C | 0.00299
C82A A111C A120U A145C C150U C169U U176C | 0.00286
C82A A111C A120U A145C C150U C169U U176G | 0.00284
C82A A111C A120U A145C C150U C169U U176A | 0.00329
